# FireProtDB (doi:10.1021/bi00025a018)
# B1: Ribonuclease HI, P0A7Y4 (parent)
# chain: MLKQVEIFTDGSCLGNPGPGGYGAILRYRGREKTFSAGYTRTTNNRMELMAAIVALEALKEHCEVILSTDSQYVRQGITQWIHNWKKRGWKTADKKPVKNVDLWQRLDAALGQHQIKWEWVKGHAGHPENERCDELARAAAMNPTLEDTGYQVEV
# Variants of: B1
# Conditions: Escherichia coli (strain K12), Thermal, CD, NaCl 0.1 M, reversible: yes, structure 2RN2, whole UniProt chain shown
# [1] = pH 3, 50.9 °C, glycine-HCl 10 mM
# [2] = pH 5.5, 52.5 °C, Sodium acetate 10 mM
Variant,ddG of mutation (higher = less stable) [1] [kcal/mol],"Tm (pH 3, glycine-HCl 10 mM) [°C]","change of melting temperature, mutant - wild type (higher = more stable) (pH 3, glycine-HCl 10 mM) [°C]","unfolding enthalpy (van 't Hoff) (pH 3, glycine-HCl 10 mM) [kcal/mol]",ddG of mutation (higher = less stable) [2] [kcal/mol],"Tm (pH 5.5, Sodium acetate 10 mM) [°C]","change of melting temperature, mutant - wild type (higher = more stable) (pH 5.5, Sodium acetate 10 mM) [°C]","unfolding enthalpy (van 't Hoff) (pH 5.5, Sodium acetate 10 mM) [kcal/mol]"
H62P,-1,54.3,3.4,110,-1.1,56.6,4.1,102
V74L,-1.1,54.6,3.7,119,-0.9,55.8,3.3,91.2
G23A,-0.7,53.2,2.3,99.3,-0.5,54.3,1.8,91.8
D134H,-0.5,53.6,1.7,106,-1.9,59.5,7,107
